Patent US20240076396A1

Assays:
[1] = biological target: human GITR expressed on the cell surface (human) (UniProt Q9Y5U5); assay: flow cytometry on Jurkat/hCD20/hGITR cells, 18 pM to 300 nM
[2] = biological target: cynomolgus monkey GITR expressed on the cell surface (Macaca fascicularis (cynomolgus monkey)); assay: flow cytometry on Jurkat/hCD20/MfGITR cells, 18 pM to 300 nM
[3] = biological target: Jurkat/hCD20 cells (human CD20, no GITR; negative control cell line) (human) (UniProt P11836); assay: flow cytometry on Jurkat/hCD20 control cells, 18 pM to 300 nM
Chain of Jurkat/hCD20 cells (human CD20, no GITR; negative control cell line) (human) (P11836 whole entry): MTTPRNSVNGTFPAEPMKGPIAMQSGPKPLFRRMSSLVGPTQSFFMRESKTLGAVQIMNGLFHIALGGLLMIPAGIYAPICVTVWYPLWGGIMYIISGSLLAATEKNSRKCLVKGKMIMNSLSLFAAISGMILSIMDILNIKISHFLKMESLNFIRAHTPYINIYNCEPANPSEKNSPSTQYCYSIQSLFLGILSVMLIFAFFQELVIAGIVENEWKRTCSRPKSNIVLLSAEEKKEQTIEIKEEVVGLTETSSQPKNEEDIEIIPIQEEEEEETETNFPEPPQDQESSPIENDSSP

[4] = biological target: human GITR expressed on the cell surface (human) (UniProt Q9Y5U5); assay: flow cytometry on Jurkat/hCD20/hGITR cells; max MFI over secondary antibody alone
[5] = biological target: cynomolgus monkey GITR expressed on the cell surface (Macaca fascicularis (cynomolgus monkey)); assay: flow cytometry on Jurkat/hCD20/MfGITR cells; max MFI over secondary antibody alone
[6] = biological target: Jurkat/hCD20 cells (human CD20, no GITR; negative control cell line) (human) (UniProt P11836); assay: flow cytometry on Jurkat/hCD20 control cells; max MFI over secondary antibody alone
[7] = biological target: human GITR expressed on the cell surface (human) (UniProt Q9Y5U5); assay: flow cytometry, AF647 antibody at 200 nM; human primary CD4+ CD25+ T-cells, donor 26001
[8] = biological target: human GITR expressed on the cell surface (human) (UniProt Q9Y5U5); assay: flow cytometry, AF647 antibody at 200 nM; human primary CD4+ CD25+ T-cells, donor 2700*
[9] = biological target: human GITR expressed on the cell surface (human) (UniProt Q9Y5U5); assay: flow cytometry, AF647 antibody at 200 nM; human primary CD4+ CD25+ T-cells, donor 7900C
[10] = biological target: human GITR expressed on the cell surface (human) (UniProt Q9Y5U5); assay: flow cytometry, AF647 antibody at 200 nM; human primary CD4+ CD25+ T-cells, donor 8700C
[11] = biological target: human GITR expressed on the cell surface (human) (UniProt Q9Y5U5); assay: flow cytometry, AF647 antibody at 200 nM; human primary CD8+ CD25+ T-cells, donor 26001
[12] = biological target: human GITR expressed on the cell surface (human) (UniProt Q9Y5U5); assay: flow cytometry, AF647 antibody at 200 nM; human primary CD8+ CD25+ T-cells, donor 2700*
[13] = biological target: human GITR expressed on the cell surface (human) (UniProt Q9Y5U5); assay: flow cytometry, AF647 antibody at 200 nM; human primary CD8+ CD25+ T-cells, donor 7900C
[14] = biological target: human GITR expressed on the cell surface (human) (UniProt Q9Y5U5); assay: flow cytometry, AF647 antibody at 200 nM; human primary CD8+ CD25+ T-cells, donor 8700C
[15] = biological target: cynomolgus monkey GITR expressed on the cell surface (Macaca fascicularis (cynomolgus monkey)); assay: flow cytometry, AF647 antibody at 200 nM; cynomolgus primary CD4+ CD69+ T-cells, donor 58945
[16] = biological target: cynomolgus monkey GITR expressed on the cell surface (Macaca fascicularis (cynomolgus monkey)); assay: flow cytometry, AF647 antibody at 200 nM; cynomolgus primary CD4+ CD69+ T-cells, donor 58946
[17] = biological target: cynomolgus monkey GITR expressed on the cell surface (Macaca fascicularis (cynomolgus monkey)); assay: flow cytometry, AF647 antibody at 200 nM; cynomolgus primary CD4+ CD69+ T-cells, donor 58947
[18] = biological target: cynomolgus monkey GITR expressed on the cell surface (Macaca fascicularis (cynomolgus monkey)); assay: flow cytometry, AF647 antibody at 200 nM; cynomolgus primary CD4+ CD69+ T-cells, donor 58948
[19] = biological target: cynomolgus monkey GITR expressed on the cell surface (Macaca fascicularis (cynomolgus monkey)); assay: flow cytometry, AF647 antibody at 200 nM; cynomolgus primary CD8+ CD69+ T-cells, donor 58945
[20] = biological target: cynomolgus monkey GITR expressed on the cell surface (Macaca fascicularis (cynomolgus monkey)); assay: flow cytometry, AF647 antibody at 200 nM; cynomolgus primary CD8+ CD69+ T-cells, donor 58946
[21] = biological target: cynomolgus monkey GITR expressed on the cell surface (Macaca fascicularis (cynomolgus monkey)); assay: flow cytometry, AF647 antibody at 200 nM; cynomolgus primary CD8+ CD69+ T-cells, donor 58947
[22] = biological target: cynomolgus monkey GITR expressed on the cell surface (Macaca fascicularis (cynomolgus monkey)); assay: flow cytometry, AF647 antibody at 200 nM; cynomolgus primary CD8+ CD69+ T-cells, donor 58948
[23] = biological target: human GITR expressed on the cell surface (human) (UniProt Q9Y5U5); assay: flow cytometry, AF647 antibody at 200 nM; human primary non-activated CD4+ CD25- T-cells, donor 26001
[24] = biological target: human GITR expressed on the cell surface (human) (UniProt Q9Y5U5); assay: flow cytometry, AF647 antibody at 200 nM; human primary non-activated CD4+ CD25- T-cells, donor 2700*
[25] = biological target: human GITR expressed on the cell surface (human) (UniProt Q9Y5U5); assay: flow cytometry, AF647 antibody at 200 nM; human primary non-activated CD4+ CD25- T-cells, donor 7900C
[26] = biological target: human GITR expressed on the cell surface (human) (UniProt Q9Y5U5); assay: flow cytometry, AF647 antibody at 200 nM; human primary non-activated CD4+ CD25- T-cells, donor 8700C
[27] = biological target: human GITR expressed on the cell surface (human) (UniProt Q9Y5U5); assay: flow cytometry, AF647 antibody at 200 nM; human primary non-activated CD8+ CD25- T-cells, donor 26001
[28] = biological target: human GITR expressed on the cell surface (human) (UniProt Q9Y5U5); assay: flow cytometry, AF647 antibody at 200 nM; human primary non-activated CD8+ CD25- T-cells, donor 2700*
[29] = biological target: human GITR expressed on the cell surface (human) (UniProt Q9Y5U5); assay: flow cytometry, AF647 antibody at 200 nM; human primary non-activated CD8+ CD25- T-cells, donor 7900C
[30] = biological target: human GITR expressed on the cell surface (human) (UniProt Q9Y5U5); assay: flow cytometry, AF647 antibody at 200 nM; human primary non-activated CD8+ CD25- T-cells, donor 8700C
[31] = biological target: cynomolgus monkey GITR expressed on the cell surface (Macaca fascicularis (cynomolgus monkey)); assay: flow cytometry, AF647 antibody at 200 nM; cynomolgus primary non-activated CD4+ CD69- T-cells, donor 58945
[32] = biological target: cynomolgus monkey GITR expressed on the cell surface (Macaca fascicularis (cynomolgus monkey)); assay: flow cytometry, AF647 antibody at 200 nM; cynomolgus primary non-activated CD4+ CD69- T-cells, donor 58946
[33] = biological target: cynomolgus monkey GITR expressed on the cell surface (Macaca fascicularis (cynomolgus monkey)); assay: flow cytometry, AF647 antibody at 200 nM; cynomolgus primary non-activated CD4+ CD69- T-cells, donor 58947
[34] = biological target: cynomolgus monkey GITR expressed on the cell surface (Macaca fascicularis (cynomolgus monkey)); assay: flow cytometry, AF647 antibody at 200 nM; cynomolgus primary non-activated CD4+ CD69- T-cells, donor 58948
[35] = biological target: cynomolgus monkey GITR expressed on the cell surface (Macaca fascicularis (cynomolgus monkey)); assay: flow cytometry, AF647 antibody at 200 nM; cynomolgus primary non-activated CD8+ CD69- T-cells, donor 58945
[36] = biological target: cynomolgus monkey GITR expressed on the cell surface (Macaca fascicularis (cynomolgus monkey)); assay: flow cytometry, AF647 antibody at 200 nM; cynomolgus primary non-activated CD8+ CD69- T-cells, donor 58946
[37] = biological target: cynomolgus monkey GITR expressed on the cell surface (Macaca fascicularis (cynomolgus monkey)); assay: flow cytometry, AF647 antibody at 200 nM; cynomolgus primary non-activated CD8+ CD69- T-cells, donor 58947
[38] = biological target: cynomolgus monkey GITR expressed on the cell surface (Macaca fascicularis (cynomolgus monkey)); assay: flow cytometry, AF647 antibody at 200 nM; cynomolgus primary non-activated CD8+ CD69- T-cells, donor 58948
[39] = biological target: hGITR.mmH (soluble monomeric recombinant human GITR ectodomain protein) (human); assay: blocking ELISA: 1.5 nM hGITR.mmH pre-incubated with antibody (up to 3 µM), binding to plate-coated hGITR-L
Chain of hGITR.mmH (soluble monomeric recombinant human GITR ectodomain protein) (human) (chain, as listed by the source limits assumed): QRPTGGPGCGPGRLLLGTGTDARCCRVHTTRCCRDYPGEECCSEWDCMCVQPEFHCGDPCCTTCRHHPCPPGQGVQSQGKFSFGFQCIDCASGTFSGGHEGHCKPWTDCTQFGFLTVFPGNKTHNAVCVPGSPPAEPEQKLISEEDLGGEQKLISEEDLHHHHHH

Chain of human GITR expressed on the cell surface (human) (Q9Y5U5 26-241 limits assumed): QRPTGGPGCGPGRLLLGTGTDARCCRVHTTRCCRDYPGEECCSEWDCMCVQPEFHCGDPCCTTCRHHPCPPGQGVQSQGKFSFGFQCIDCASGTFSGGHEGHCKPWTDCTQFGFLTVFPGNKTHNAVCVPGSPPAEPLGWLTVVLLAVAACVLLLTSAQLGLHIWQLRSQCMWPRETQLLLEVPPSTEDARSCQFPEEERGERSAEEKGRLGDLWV

Substance: IgG1 isotype control (antibody)
- Max MFI [1]: 1090 MFI
- Max MFI [2]: 1360 MFI
- Max MFI [3]: 1070 MFI
- Fold Binding [4]: 1.09 fold
- Fold Binding [5]: 1.1 fold
- Fold Binding [6]: 1.15 fold
- Max MFI [7]: 1230 MFI
- Max MFI [8]: 2080 MFI
- Max MFI [9]: 2280 MFI
- Max MFI [10]: 1920 MFI
- Max MFI [11]: 1100 MFI
- Max MFI [12]: 1990 MFI
- Max MFI [13]: 2090 MFI
- Max MFI [14]: 1970 MFI
- Max MFI [15]: 1110 MFI
- Max MFI [16]: 803 MFI
- Max MFI [17]: 1230 MFI
- Max MFI [18]: 1030 MFI
- Max MFI [19]: 1090 MFI
- Max MFI [20]: 650 MFI
- Max MFI [21]: 921 MFI
- Max MFI [22]: 1130 MFI
- Max MFI [23]: 827 MFI
- Max MFI [24]: 1410 MFI
- Max MFI [25]: 1330 MFI
- Max MFI [26]: 1060 MFI
- Max MFI [27]: 644 MFI
- Max MFI [28]: 1130 MFI
- Max MFI [29]: 1140 MFI
- Max MFI [30]: 1780 MFI
- Max MFI [31]: 730 MFI
- Max MFI [32]: 650 MFI
- Max MFI [33]: 825 MFI
- Max MFI [34]: 817 MFI
- Max MFI [35]: 565 MFI
- Max MFI [36]: 455 MFI
- Max MFI [37]: 601 MFI
- Max MFI [38]: 512 MFI
- % Max Inhibition [39]: -6%
